Reference: publication PMC9463131, “SLITRK1-mediated noradrenergic projection suppression in the neonatal prefrontal cortex” (Communications Biology, 2022)
Several values for one entry are separate records, joined by “and”; a condition that tells them apart may be missing. Equal values may be shown once.

Target: human Neurofascin ECD-His6 (human, UniProt O94856 25-1217, Mammalian-expressed glycoprotein is likely. C-terminal His6 tag omitted. The limits are not printed. The paper names catalogue 8208-NF-050 as Neurofascin 155, so the chain runs from after the signal p)
Assay: quartz crystal microbalance; SLITRK1 ECD-Fc (about 200 fmol) immobilised on the 27 MHz gold resonator through anti-human IgG Fc-HRP; ECD-His6 proteins added in solution; 50 mM Tris-HCl pH 7.6, 15 mM NaCl, 140 mM KCl, 0.5 mM MgCl2, 2 mM CaCl2; 25 ± 1 °C; kon and koff from 1/τ against concentration, KD = koff/kon; each sheet row is one experiment
Details: both partners purified

Kd	koff	kon	Binder
44.8 nM and 64.2 nM and 68.8 nM	0.00635 s⁻¹ and 0.00732 s⁻¹ and 0.00627 s⁻¹	142000 M⁻¹ s⁻¹ and 91200 M⁻¹ s⁻¹ and 114000 M⁻¹ s⁻¹	SLITRK1-S330A-Fc (Fc fusion, human, UniProt Q96PX8 18-616, looked up, signal peptide in the construct; human SLITRK1 extracellular domain, amino acid number 1-616 in NP_443142, with the patient-derived mutation S330A; S330A was found in patients (SCZ/BPD) and controls, so it occurs in nature; also called SLITRK1 ECD-Fc S330A) NVTGDVCKEKICSCNEIEGDLHVDCEKKGFTSLQRFTAPTSQFYHLFLHGNSLTRLFPNEFANFYNAVSLHMENNGLHEIVPGAFLGLQLVKRLHINNNKIKSFRKQTFLGLDDLEYLQADFNLLRDIDPGAFQDLNKLEVLILNDNLISTLPANVFQYVPITHLDLRGNRLKTLPYEEVLEQIPGIAEILLEDNPWDCTCDLLSLKEWLENIPKNALIGRVVCEAPTRLQGKDLNETTEQDLCPLKNRVDSSLPAPPAQEETFAPGPLPTPFKTNGQEDHATPGSAPNGGTKIPGNWQIKIRPTAAIATGSARNKPLANSLPCPGGCSCDHIPGSGLKMNCNNRNVSSLADLKPKLSNVQELFLRDNKIHSIRKSHFVDYKNLILLDLGNNNIATVENNTFKNLLDLRWLYMDSNYLDTLSREKFAGLQNLEYLNVEYNAIQLILPGTFNAMPKLRILILNNNLLRSLPVDVFAGVSLSKLSLHNNYFMYLPVAGVLDQLTSIIQIDLHGNPWECSCTIVPFKQWAERLGSEVLMSDLKCETPVNFFRKDFMLLSNDEICPQLYARISPTLTSHSKNSTGLAETGTHSNSYLDTSRVS
13.3 nM and 16.3 nM and 13.1 nM	0.00529 s⁻¹ and 0.00613 s⁻¹ and 0.00588 s⁻¹	398000 M⁻¹ s⁻¹ and 376000 M⁻¹ s⁻¹ and 451000 M⁻¹ s⁻¹	SLITRK1-A444S-Fc (Fc fusion, human, UniProt Q96PX8 18-616, looked up, signal peptide in the construct; human SLITRK1 extracellular domain, amino acid number 1-616 in NP_443142, with the patient-derived mutation A444S; A444S was found in patients with BPD, so it occurs in nature; also called SLITRK1 ECD-Fc A444S) NVTGDVCKEKICSCNEIEGDLHVDCEKKGFTSLQRFTAPTSQFYHLFLHGNSLTRLFPNEFANFYNAVSLHMENNGLHEIVPGAFLGLQLVKRLHINNNKIKSFRKQTFLGLDDLEYLQADFNLLRDIDPGAFQDLNKLEVLILNDNLISTLPANVFQYVPITHLDLRGNRLKTLPYEEVLEQIPGIAEILLEDNPWDCTCDLLSLKEWLENIPKNALIGRVVCEAPTRLQGKDLNETTEQDLCPLKNRVDSSLPAPPAQEETFAPGPLPTPFKTNGQEDHATPGSAPNGGTKIPGNWQIKIRPTAAIATGSSRNKPLANSLPCPGGCSCDHIPGSGLKMNCNNRNVSSLADLKPKLSNVQELFLRDNKIHSIRKSHFVDYKNLILLDLGNNNIATVENNTFKNLLDLRWLYMDSNYLDTLSREKFSGLQNLEYLNVEYNAIQLILPGTFNAMPKLRILILNNNLLRSLPVDVFAGVSLSKLSLHNNYFMYLPVAGVLDQLTSIIQIDLHGNPWECSCTIVPFKQWAERLGSEVLMSDLKCETPVNFFRKDFMLLSNDEICPQLYARISPTLTSHSKNSTGLAETGTHSNSYLDTSRVS
